Data set [1] deals with the molecule itself. The experiment in a line: SEC; untagged FL (1.5 mg or as specified) on calibrated Superdex 200 HR 10/30, buffer A, 0.8 ml/min; dimer and monomer fractions re-run; monomer-dimer equilibrium.
Data set [2] addresses T1, GST-FL (glutathione-S-transferase fused full length testin) (Homo sapiens (Human), UniProt Q9UGI8-1).
T1 chain: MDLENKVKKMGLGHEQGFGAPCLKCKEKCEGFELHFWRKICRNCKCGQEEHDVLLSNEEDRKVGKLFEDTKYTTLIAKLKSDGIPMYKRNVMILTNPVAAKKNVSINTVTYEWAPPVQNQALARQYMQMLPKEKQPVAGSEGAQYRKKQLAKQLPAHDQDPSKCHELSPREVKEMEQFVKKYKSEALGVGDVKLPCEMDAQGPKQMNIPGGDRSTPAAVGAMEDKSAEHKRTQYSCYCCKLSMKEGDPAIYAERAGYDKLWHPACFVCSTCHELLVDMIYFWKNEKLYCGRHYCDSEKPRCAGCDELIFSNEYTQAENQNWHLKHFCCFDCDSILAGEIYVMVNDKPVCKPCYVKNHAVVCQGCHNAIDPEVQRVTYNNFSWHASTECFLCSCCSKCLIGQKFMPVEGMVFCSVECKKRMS
In words: GST pull-down with western blot.

Data set [3] deals with T2, untagged PET^52-233 of testin (amino acids 52-233) (human, UniProt Q9UGI8-1 52-233).
T2 construct: pGEX-2TK; source: E. coli BL21(DE3) pLYSstar, purified on glutathione sepharose as GST fusion, GST removed with thrombin
T2 sequence (looked up): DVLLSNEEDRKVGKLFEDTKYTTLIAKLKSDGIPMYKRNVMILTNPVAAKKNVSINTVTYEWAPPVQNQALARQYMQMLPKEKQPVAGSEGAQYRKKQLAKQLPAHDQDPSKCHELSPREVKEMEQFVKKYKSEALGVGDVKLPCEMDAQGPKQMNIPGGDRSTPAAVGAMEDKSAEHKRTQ
The experiment in a line: supernatans depletion assay; GST-LIM1-3 on glutathione-sepharose beads at 0.31-50 μM incubated with 2.5 μM PET^52-233 in buffer A, 1 hour at 4°C; unbound PET^52-233 quantified on Coomassie gels; fit 'one site saturation + nonspecific'. Conditions: both partners purified.

B1: untagged recombinant full length (FL) testin (natural protein, human, UniProt Q9UGI8-1 1-421, looked up)
chain: MDLENKVKKMGLGHEQGFGAPCLKCKEKCEGFELHFWRKICRNCKCGQEEHDVLLSNEEDRKVGKLFEDTKYTTLIAKLKSDGIPMYKRNVMILTNPVAAKKNVSINTVTYEWAPPVQNQALARQYMQMLPKEKQPVAGSEGAQYRKKQLAKQLPAHDQDPSKCHELSPREVKEMEQFVKKYKSEALGVGDVKLPCEMDAQGPKQMNIPGGDRSTPAAVGAMEDKSAEHKRTQYSCYCCKLSMKEGDPAIYAERAGYDKLWHPACFVCSTCHELLVDMIYFWKNEKLYCGRHYCDSEKPRCAGCDELIFSNEYTQAENQNWHLKHFCCFDCDSILAGEIYVMVNDKPVCKPCYVKNHAVVCQGCHNAIDPEVQRVTYNNFSWHASTECFLCSCCSKCLIGQKFMPVEGMVFCSVECKKRMS
notes: testin, human, full length protein (residues 1-421), isoform 1 NP_056456.1; From pGEX-2TK; thrombin site between GST and FL; By SEC it is in a monomer-dimer equilibrium; also called non-tagged recombinant FL; source: E. coli BL21(DE3) pLYSstar, purified on glutathione sepharose as GST-FL, GST removed with thrombin
B1: the stoichiometry N (commonly the number of molecules, sites or subunits per partner or assembly) in data set [1] was found to be 2.

B2: ena/VASP-like protein (Evl), soluble untagged (protein)
chain: MSEQSICQARASVMVYDDTSKKWVPIKPGQQGFSRINIYHNTASNTFRVVGVKLQDQQVVINYSIVKGLKYNQATPTFHQWRDARQVYGLNFASKEEATTFSNAMLFALNIMNSQEGGPSSQRQVQNGPSPDEMDIQRRQVMEQHQQQRQESLERRTSATGPILPPGHPSSAASAPVSCSGPPPPPPPPVPPPPTGATPPPPPPLPAGGAQGSSHDESSMSGLAAAIAGAKLRRVQRPEDASGGSSPSGTSKSDANRASSGGGGGGLMEEMNKLLAKRRKAASQSDKPAEKKEDESQMEDPSTSPSPGTRAASQPPNSSEAGRKPWERSNSVEKPVSSILSRTPSVAKSPEAKSPLQSQPHSRMKPAGSVNDMALDAFDLDRMKQEILEEVVRELHKVKEEIIDAIRQELSGISTT
As for B2, in data set [2], the binding result is given as “binds”.

B3: GST-LIM1-3 of testin (domain or fragment)
chain: YSCYCCKLSMKEGDPAIYAERAGYDKLWHPACFVCSTCHELLVDMIYFWKNEKLYCGRHYCDSEKPRCAGCDELIFSNEYTQAENQNWHLKHFCCFDCDSILAGEIYVMVNDKPVCKPCYVKNHAVVCQGCHNAIDPEVQRVTYNNFSWHASTECFLCSCCSKCLIGQKFMPVEGMVFCSVECKKRMS
modifications: zinc-bound LIM domains; exact start is only in Fig 1A, so limits are taken from the UniProt LIM1 start (234, adjacent to PET 52-233) to the C-terminus (421); GST omitted
Regarding B3, the Kd (in general, the constant that tells how readily two partners part at equilibrium) in data set [3] was 180 nM.
